Results reported in EP3020822A1 (Janssen Biotech, Inc., dated 2016).
Residue numbers refer to the chain shown, from its start. Names may count otherwise.

B1: mAb 8 (antibody, human IgG4 S228P, V domains shown)
VH: QVELQQSGPGLVKPSQTLSLTCAISGDSVSSNSAAWGWIRQSPGRGLEWLGIIQTRSKWYNDYAVSVKSRITINPDTSKNQFSLQLNSVTPEDTAVYYCARYSYPFYSIDYWGQGTLVTVSS
VL: DIELTQPPSVSVAPGQTARISCSGDNIGSYYVHWYQQKPGQAPVLVIYEDSERPSGIPERFSGSNSGNTATLTISGTQAEDEADYYCQSYDSQFSFGVFGGGTKLTVL
notes: human IgG4 with S229P; also called candidate 8; Fab 8
B2: mAb 10 (antibody, human IgG4 S228P, V domains shown)
VH: B1 VH with T55K, D62N
VL: DIELTQPPSVSVAPGQTARISCSGDNIGSYYVHWYQQKPGQAPVLVIYEDSERPSGIPERFSGSNSGNTATLTISGTQAEDEADYYCQSYDTPVYSVFGGGTKLTVL
notes: human IgG4 with S229P; also called candidate 10; Fab 10
B3: mAb 9 (antibody, human IgG4 S228P, V domains shown)
VH: B1 VH with T55I, V65L
VL: B1 VL
notes: human IgG4 with S229P; also called candidate 9; Fab 9
B4: mAb 11 (antibody, human IgG4 S228P, V domains shown)
VH: B1 VH with T55K, D62N
VL: B2 VL with Q88S, T92E, V94N, Y95F, S96N
notes: human IgG4 with S229P; also called candidate 11; Fab 11
B5: mAb 18 (antibody, human IgG4 S228P, V domains shown)
VH: B1 VH with T55K, D62N
VL: B1 VL
notes: human IgG4 with S229P; also called candidate 18; Fab 18
B6: mAb 13 (antibody, human IgG4 S228P, V domains shown)
VH: QVELVQSGAEVKKPGESLKISCKGSGYSFTNYWVGWVRQMPGKGLEWMGFIDPSDSYTNYAPSFQGQVTISADKSISTAYLQWSSLKASDTAMYYCARELYQGYMDTFDSWGQGTLVTVSS
VL: DIQMTQSPSSLSASVGDRVTITCRASQSIGLYLAWYQQKPGKAPKLLIYAASSLQSGVPSRFSGSGSGTDFTLTISSLQPEDFATYYCQQGESILSTFGQGTKVEIK
notes: human IgG4 with S229P; also called candidate 13; Fab 13
B7: mAb 19 (antibody, human IgG4 S228P, V domains shown)
VH: B6 VH
VL: B6 VL with G91Y, E92G, I94V, L95S, S96I
notes: human IgG4 with S229P; also called candidate 19; Fab 19
B8: mAb 15EVQ (antibody, human IgG4 S228P, kappa, F234A L235A)
heavy: not shown
light: DIQMTQSPSSLSASVGDRVTITCRASQSIGLYLAWYQQKPGKAPKLLIYAASSLQSGVPSRFSGSGSGTDFTLTISSLQPEDFATYYCQQGNTLSYTFGQGTKVEIKRTVAAPSVFIFPPSDEQLKSGTASVVCLLNNFYPREAKVQWKVDNALQSGNSQESVTEQDSKDSTYSLSSTLTLSKADYEKHKVYACEVTHQGLSSPVTKSFNRGEC
B9: mAb 15-6 (antibody, human IgG4 S228P, kappa, F234A L235A, V domains shown)
VH: B6 VH with Q1E, E3Q, V34I, G35S, E99Q
VL: DIQMTQSPSSLSASVGDRVTITCRASQSIGLYLAWYQQKPGKAPKLLIYAASSLQSGVPSRFSGSGSGTDFTLTISSLQPEDFATYYCQQGNTLSYTFGQGTKVEIKR
notes: also called HC: V34I/G35S/E99Q
B10: mAb 15-1 (antibody, human IgG4 S228P, kappa, F234A L235A, V domains shown)
VH: B6 VH with Q1E, E3Q, F50R
VL: B9 VL
notes: also called HC: F50R
B11: mAb 15 (antibody, human IgG4 S228P, kappa)
heavy: not shown
light: B8 light
B12: mAb 15-4 (antibody, human IgG4 S228P, kappa, F234A L235A, V domains shown)
VH: B6 VH with Q1E, E3Q, A61S, Q67H
VL: B9 VL
notes: also called HC: A61S/Q67H
B13: mAb 14 (antibody, human IgG4 S228P, kappa, V domains shown)
VH: B6 VH
VL: B9 VL with G91A, N92E, L94V, Y96P
notes: human IgG4 with S229P; also called candidate 14; Fab 14
B14: mAb 15-5 (antibody, human IgG4 S228P, kappa, F234A L235A, V domains shown)
VH: B6 VH with Q1E, E3Q, V34I, G35S, F50R, A61S, Q67H
VL: B9 VL
notes: also called HC: F50R/V34I/G35S/A61S/Q67H
B15: mAb 15-9 (antibody, human IgG4 S228P, kappa, F234A L235A, V domains shown)
VH: B6 VH with Q1E, E3Q, V34I, G35S, F50R, A61S, Q67H, E99Q
VL: B9 VL
notes: also called HC: F50R/V34I/G35S/A61S/Q67H/E99Q
B16: mAb 15-2 (antibody, human IgG4 S228P, kappa, F234A L235A, V domains shown)
VH: B6 VH with Q1E, E3Q, V34I
VL: B9 VL
notes: also called HC: V34I
B17: mAb 15-3 (antibody, human IgG4 S228P, kappa, F234A L235A, V domains shown)
VH: B6 VH with Q1E, E3Q, V34I, G35S
VL: B9 VL
notes: also called HC: V34I/G35S
B18: mAb 1 (antibody, human IgG4 S228P)
heavy: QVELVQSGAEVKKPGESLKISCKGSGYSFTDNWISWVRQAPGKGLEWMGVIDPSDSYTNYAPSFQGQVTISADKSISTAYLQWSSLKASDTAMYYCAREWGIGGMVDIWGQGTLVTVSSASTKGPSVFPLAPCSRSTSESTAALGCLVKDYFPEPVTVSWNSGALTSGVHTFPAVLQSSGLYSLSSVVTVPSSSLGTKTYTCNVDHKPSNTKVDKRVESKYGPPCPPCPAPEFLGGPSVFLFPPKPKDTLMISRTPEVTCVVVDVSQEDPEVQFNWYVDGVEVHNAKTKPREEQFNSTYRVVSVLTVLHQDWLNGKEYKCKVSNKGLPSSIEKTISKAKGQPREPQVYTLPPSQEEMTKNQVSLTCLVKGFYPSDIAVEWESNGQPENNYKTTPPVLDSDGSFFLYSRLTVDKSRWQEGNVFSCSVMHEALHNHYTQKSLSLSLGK
VL: DIVLTQSPATLSLSPGERATLSCRASQYIDISYLAWYQQKPGQAPRLLIYDASSRATGVPARFSGSGSGTDFTLTISSLEPEDFAVYYCQQYYSLSITFGQGTKVEIK
notes: human IgG4 with S229P; also called candidate 1; Fab 1
B19: mAb 5429 (antibody, mouse IgG1, kappa, V domains shown)
VH: EVQLVASGGGLVKPGASLKLSCVASGFTFSDYWMAWVRQTPGKPMEYIGDIKSDGSKVNYAPSLKNRFTISRDNARTTLYLQMSNVRSEDTATYYCNRDIGPDWYFDFWGPGTMVTVSS
VL: DIQMTQSPTSLSASLGETVTIECRASEDIYNGLAWYQQKPGKSPQLLIYDSNSLHTGVPSRFSGRGSGTQYSLRINSLQSEDVASYFCQQYYDYPLTFGSGTKLEIKR
B20: mAb c1811 (antibody, mouse IgG1, kappa, V domains shown)
VH: B19 VH
VL: B19 VL
B21: mAb 17 (antibody, human IgG4 S228P, V domains shown)
VH: QVELQQSGPGLVKPSQTLSLTCAISGDSVSTRSAAWGWIRQSPGRGLEWLGRIYMRSKWYNDYAVSVKSRITINPDTSKNQFSLQLNSVTPEDTAVYYCARHTYPYLSFDVWGQGTLVTVSS
VL: DIELTQPPSVSVAPGQTARISCSGDALGGYFVSWYQQKPGQAPVLVIYDDDNRPSGIPERFSGSNSGNTATLTISGTQAEDEADYYCASYDGDEFTVFGGGTKLTVL
notes: human IgG4 with S229P; also called candidate 17; Fab 17
B22: mAb 6 (antibody, human IgG4 S228P, V domains shown)
VH: B21 VH
VL: B21 VL with A88G, G92S, D93N, E94S, F95L
notes: human IgG4 with S229P; also called candidate 6; Fab 6
B23: mAb 3 (antibody, human IgG4 S228P, V domains shown)
VH: B21 VH with Y54H, M55R
VL: B21 VL
notes: human IgG4 with S229P; also called candidate 3; Fab 3
B24: mAb 4 (antibody, human IgG4 S228P, V domains shown)
VH: B21 VH with R52K, Y54S, M55Y, K58R
VL: B21 VL
notes: human IgG4 with S229P; also called candidate 4; Fab 4
B25: mAb 5 (antibody, human IgG4 S228P, V domains shown)
VH: B21 VH
VL: B21 VL with A88Q, G92E, E94S, F95A
notes: human IgG4 with S229P; also called candidate 5; Fab 5
B26: mAb 7 (antibody, human IgG4 S228P, V domains shown)
VH: B21 VH
VL: B21 VL with A88S, G92S, E94S, F95L
notes: human IgG4 with S229P; also called candidate 7; Fab 7
B27: mAb 2 (antibody, human IgG4 S228P, V domains shown)
VH: QVELVQSGAEVKKPGESLKISCKGSGYSFNNYWIGWVRQMPGKGLEWMGIIDPQDSWTNYAPSFQGQVTISADKSISTAYLQWSSLKASDTAMYYCARNIYEFDYWGQGTLVTVSS
VL: DIQMTQSPSSLSASVGDRVTITCRASQGISSWLNWYQQKPGKAPKLLIYGASNLQSGVPSRFSGSGSGTDFTLTISSLQPEDFAVYYCQQYDDFSITFGQGTKVEIK
notes: human IgG4 with S229P; also called candidate 2; Fab 2
B28: mAb 16 (antibody, human IgG4 S228P, V domains shown)
VH: B27 VH with Q54G, W57Y
VL: B27 VL
notes: human IgG4 with S229P; also called candidate 16; Fab 16

Legend:
[1] = molecular target: T1, human TLR3 extracellular domain (ECD) (human, UniProt O15455 24-703); experiment: Biacore (data not shown)
T1 construct: amino acids 1-703 of human TLR3; the structural model covers residues 30-687; also called huTLR3 ECD; TLR3 ECD

[2] = molecular target: T1, human TLR3 extracellular domain (ECD); experiment: ELISA, huTLR3 ECD coated, mAb titrated, anti-human IgG-peroxidase
[3] = molecular target: cynomolgus TLR3 (cynomolgus, UniProt A0A2K5WT39 32-912); experiment: cell-based or functional assay
[4] = molecular target: T1, human TLR3 extracellular domain (ECD); experiment: ELISA, human TLR3 ECD coated, goat anti-human Fc:HRP, luminescence
[5] = molecular target: murine TLR3, full length (mouse, UniProt Q99MB1 26-905); experiment: cell-based or functional assay

| Binder | Kd [1] [nM] | EC50 [2] [µg/mL] | other results |
| --- | --- | --- | --- |
| B1 | < 10 | 0.0186 |  |
| B2 | < 10 | 0.0158 |  |
| B3 | < 10 | 0.0226 |  |
| B4 | < 10 | 0.0263 |  |
| B5 | < 10 | 0.00968 |  |
| B6 | < 10 | 0.0235 |  |
| B7 | < 10 | 0.0665 |  |
| B8 |  |  | IC50, cyno ISRE reporter gene assay [3]: 1.74 µg/mL; IC50, cyno NF-κB reporter gene assay [3]: 4.18 µg/mL |
| B9 |  |  | binding result [4]: binds |
| B10 |  |  | binding result [4]: binds |
| B11 |  |  | IC50, poly(I:C) ISRE luciferase reporter gene assay, HEK293T cells with full-length murine TLR3 [5]: 22 µg/mL |
| B12 |  |  | binding result [4]: binds |
| B13 | < 10 | 0.0336 |  |
| B14 |  |  | binding result [4]: binds |
| B15 |  |  | binding result [4]: binds |
| B16 |  |  | binding result [4]: binds |
| B17 |  |  | binding result [4]: binds |
| B18 | < 10 | 0.0172 |  |
| B19 |  |  | IC50, poly(I:C) ISRE luciferase reporter gene assay, HEK293T cells with full-length murine TLR3 [5]: 0.5 µg/mL |
| B20 |  |  | IC50, poly(I:C) ISRE luciferase reporter gene assay, HEK293T cells with full-length murine TLR3 [5]: 0.7 µg/mL |
| B21 | < 10 | 0.0138 |  |
| B22 | < 10 | 0.019 |  |
| B23 | < 10 | 0.0234 |  |
| B24 | < 10 | 0.0128 |  |
| B25 | < 10 | 0.0199 |  |
| B26 | < 10 | 0.0161 |  |
| B27 | < 10 | 0.0531 |  |
| B28 | < 10 | 0.0437 |  |
